Assay results from patent US20260108605A1.

Target: antibody anti-FITC IgG1 (prepared in-house)
Test: SPR, Biacore 8K; anti-FITC IgG1 captured on Protein A chip, CD16a protein as analyte

Row | Substance | Kd [µM] | koff [s⁻¹] | kon [M⁻¹ s⁻¹]
1 | 1600E, recombinant fragment of the extracellular domain of CD16a protein with natural mutation F176V (from UniProt P08637 17-208) (receptor) | 0.484 | 0.119 | 245000
2 | 1600WE, recombinant fragment of the extracellular domain of wild-type CD16a protein (from UniProt P08637 17-208) (receptor) | 2.6 | 0.258 | 99500
3 | 1602E, recombinant fragment of the extracellular domain of CD16a protein with point mutation Q192P (from UniProt P08637 17-208) (receptor) | 0.557 | 0.119 | 214000
4 | 1604E, recombinant fragment of the extracellular domain of CD16a protein with point mutation L194P (from UniProt P08637 17-208) (receptor) | 0.477 | 0.113 | 236000
5 | 1615E, recombinant fragment of the extracellular domain of CD16a protein with point mutation A195V (from UniProt P08637 17-208) (receptor) | 0.576 | 0.113 | 196000
6 | 1626E, recombinant fragment of the extracellular domain of CD16a protein with point mutation V196M (from UniProt P08637 17-208) (receptor) | 0.476 | 0.114 | 240000
7 | 1632E, recombinant fragment of the extracellular domain of CD16a protein with point mutation Q192N (from UniProt P08637 17-208) (receptor) | 0.479 | 0.117 | 244000
8 | 1635E, recombinant fragment of the extracellular domain of CD16a protein with point mutation L194I (from UniProt P08637 17-208) (receptor) | 0.506 | 0.121 | 240000

Stronger by Kd, values ahead:

Row | Kd [µM] | koff [s⁻¹] | kon [M⁻¹ s⁻¹] | Substance
9 | 0.418 | 0.105 | 251000 | 1623E, recombinant fragment of the extracellular domain of CD16a protein with point mutation V196G (from UniProt P08637 17-208) (receptor)
10 | 0.415 | 0.112 | 270000 | 1625E, recombinant fragment of the extracellular domain of CD16a protein with point mutation V196Q (from UniProt P08637 17-208) (receptor)
11 | 0.402 | 0.107 | 267000 | 1627E, recombinant fragment of the extracellular domain of CD16a protein with point mutation V196H (from UniProt P08637 17-208) (receptor)
12 | 0.448 | 0.117 | 260000 | 1630E, recombinant fragment of the extracellular domain of CD16a protein with point mutation S197P (from UniProt P08637 17-208) (receptor)
13 | 0.391 | 0.101 | 257000 | 1637E, recombinant fragment of the extracellular domain of CD16a protein with point mutation V196S (from UniProt P08637 17-208) (receptor)
